US20190185865A1, “USE OF PROKARYOTIC TRANSCRIPTIONAL ACTIVATORS AS METABOLITE BIOSENSORS IN EUKARYOTIC CELLS” (Danmarks Tekniske Universitet, priority 2016, published 2019)
Read-outs that look alike come from different tables or passages of the source.

Legend:
[1] = target: T1, BenM (Acinetobacter baylyi, UniProt O68014); assay: CCM-induced GFP expression in yeast strains combining BenM expression cassettes and CYC1p reporter promoter variants (flow cytometry); assay type: cell-based, Saccharomyces cerevisiae; parameters: expressed in transfected cells; host or cells: Saccharomyces cerevisiae CEN.PK113-5A, chromosomal integration; promoters TDH3p, TEF1p, RNR2p or REV1p; conditions: 30° C. vs 37° C.
T1 sequence (O68014 whole entry, looked up): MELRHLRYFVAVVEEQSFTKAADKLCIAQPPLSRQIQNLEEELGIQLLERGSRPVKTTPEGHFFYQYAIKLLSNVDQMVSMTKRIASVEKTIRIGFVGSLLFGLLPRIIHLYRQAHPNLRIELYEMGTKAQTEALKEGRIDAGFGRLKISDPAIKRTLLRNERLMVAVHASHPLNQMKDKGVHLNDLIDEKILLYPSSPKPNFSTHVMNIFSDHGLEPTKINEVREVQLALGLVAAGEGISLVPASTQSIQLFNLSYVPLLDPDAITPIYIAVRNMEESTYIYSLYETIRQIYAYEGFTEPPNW
From the text: Strains, chemicals and media. Saccharomyces cerevisiae CEN.PK102-5B (MATa ura3-52 his3Δ1 leu2-3/112 MAL2-8^c SUC2), CEN.PK113-5A (MATa, trp1 his3Δ1 leu2-3/112 MAL2-8^c SUC2) and CEN.PK113-7D (wild type, MATa MAL2-8^c SUC2) strains were obtained from Peter Kotter (Johann Wolfgang Goethe-University Frankfurt, Germany). In principal any other yeast strains may be used, such as one obtained from public repository EuroScarf. EasyClone plasmids used in this work are described in Jensen, N. B. et al. EasyClone: method for iterative chromosomal integration of multiple genes in Saccharomyces cerevisiae. FEMS Yeast Res. 14, 238-48 (2014). Escherichia coli strain DH5a was used as a host for cloning and plasmid propagation. The chemicals and Pfu TURBO DNA polymerase were commercially obtained (Sigma-Aldrich and Agilent Technologies Inc., respectively). All acids used were >97% in purity. S. cerevisiae cells were grown at 30° C. in synthetic complete medium as well as drop-out media and agar plates were prepared using pre-mixed drop-out powders (Sigma-Aldrich). Mineral medium was freshly prepared as described previously. For all media containing diacids, 1.4 mM of the individual diacids were dissolved in mineral medium and pH adjusted to 4.5 before sterile filtration. […]
(§1) Events were analyzed using FlowJo software (TreeStar Inc.).

[2] = test system: 209 bp_CYC1p_T1 promoter; assay: LTTR-mediated activation of GFP expression from 209 bp_CYC1p_T1 reporter promoter in yeast, without ligand; assay type: cell-based, Saccharomyces cerevisiae; conditions: LTTR expressed from strong TDH3 promoter
Protocol: as §1
The genetic device developed in this study represents to the best of our knowledge the first example of transplanting a prokaryotic transcriptional activator into a eukaryotic chassis and successfully using it to activate gene expression without the need for modifying the protein beyond codon optimization. […] To test the generality of the biosensor design for onboarding other small-molecule binding transcriptional activators as biosensors in yeast we selected four other candidates from the LTTR family; FdeR from Herbaspirillum seropedicae, PcaQ from Sinorhizobium meliloti, ArgP from Escherichia coli, and MdcR from Klebsiella pneumonia, with co-inducers naringenin, protocatechuic acid (PCA), L-arginine, and malonic acid, respectively. In this proof-of-principle study we selected the four candidates based on a minimal set of information, including knowledge about operator sequences, experimental evidence for ligand-inducible control of target operons, and their mode-of-action within native chassis (ie. activation, FIG. 1). Furthermore all of these metabolites can passively diffuse across the yeast plasma membrane, with the exception of malonic acid, which requires the expression of the dicarboxylic acid transporter MAE1 from Schizosaccharomyces pombe. […]

[3] = target: T1, BenM; assay: Screening 17 yeast strains with BenO at different positions upstream of TATA1 of 209 bp CYC1p; assay type: cell-based; parameters: expressed in transfected cells; promoters TDH3p, TEF1p, RNR2p or REV1p; conditions: BenM from REV1p, 1.4 mM CCM, 24 h
Protocol: FIG. 14. Screening 17 yeast strains expressing BenM from the REV1p in combination with CYC1p reporter promoter of 209 bp with BenO placed at different positions upstream of TATA1. The fold induction (mean±s.d.) was calculated by dividing mean fluorescence intensity (MFI) in medium with 1.4 mM CCM by the MFI in control medium as measured by flow cytometry after 24 h of growth for three biological replicates.
In addition to this, the present inventors also tested 17 different positions for positioning of the BenM binding site (benO).

[4] = test system: CYC1 promoter with BenM operator (BenO); conditions: BenM from TEF1 promoter
Protocol: Cells grown for 24 h in control (mineral medium, pH 4.5) or inducing medium (mineral medium pH 4.5+1.4 mM CCM, 1.4 mM protocatechuic acid, 10 mM malonic acid, 0.2 mM naringenin, or 50 mM L-arginine) were diluted into PBS to arrest cell growth. Cells were then analyzed by flow cytometry using a Fortessa flow cytometer (Becton Dickinson) with a blue laser (488 nm), for validation of single strains. For each strain 10,000 single-cell events were recorded. Events were analyzed using FlowJo software (TreeStar Inc.). The fluorescence arithmetic mean of the gated cell population was calculated, and the fold-change determined by dividing the mean fluorescence of the induced (ON) state with the mean fluorescence of the control (OFF) state. For flow cytometry for CCM and naringenin producing cells we tested mean fluorescence intensities from 10,000 cells pr. strain following 72 and 48 h, respectively. The data represent the average of three (n=3) biological replicates and error bars correspond to the standard deviation between these measurements.
Initially, BenO was introduced into the 491 bp CYC1 promoter immediately upstream of one of the two TATA boxes—TATA-1β (designated 491 bp_CYC1p_BenO_T1) or TATA-2α (designated 491 bp_CYC1p_BenO_T2), or upstream of both (designated 491 bp_CYC1p_BenO_T1/T2)(FIG. 2a). Outputs from these engineered promoters were compared by flow cytometry to expression from the native CYC1p (491 bp_CYC1p) using GFP as the reporter (FIG. 1a and FIG. 2a).

[5] = test system: BenO-containing human cytomegalovirus (CMV) promoter; conditions: 24 h, GFP normalized by RFP; p<0.05 (t-test)
Protocol: CHO cells were transfected with a plasmid with the BenO-containing human cytomegalovirus (CMV) promoter controlling the expression of GFP as well as an empty vector (− BenM) or a vector expressing BenM (+ BenM). Total GFP expression was measured after 24 h, and normalized by total RFP expression. Average and standard deviation are based on three biological replicates. *; p<0.05 (t-test).
For testing the reporter promoter design with other promoter backbones AND in another eukaryotes, Chinese hamster ovary cells was transformed using the human cytomegalovirus promoter backbone (CMV) instead of the CYC1 promoter backbone used in yeast.
Just as in the case with the yeast design using CYC1 promoter as a backbone, the present inventors put the binding site (benO) for the prokaryotic transcriptional activator BenM 6 bp upstream of the TATA box the CMV promoter and scored reporter gene activity (GFP fluorescence) in the presence and absence of the transcriptional activator BenM.

B1: BenM: CCM-inducible LysR-type transcriptional activator from Acinetobacter sp ADP1, codon-optimized for yeast (protein, UniProt O68014 1-304, looked up)
HTH-type transcriptional …: MELRHLRYFVAVVEEQSFTKAADKLCIAQPPLSRQIQNLEEELGIQLLERGSRPVKTTPEGHFFYQYAIKLLSNVDQMVSMTKRIASVEKTIRIGFVGSLLFGLLPRIIHLYRQAHPNLRIELYEMGTKAQTEALKEGRIDAGFGRLKISDPAIKRTLLRNERLMVAVHASHPLNQMKDKGVHLNDLIDEKILLYPSSPKPNFSTHVMNIFSDHGLEPTKINEVREVQLALGLVAAGEGISLVPASTQSIQLFNLSYVPLLDPDAITPIYIAVRNMEESTYIYSLYETIRQIYAYEGFTEPPNW
modifications: codon-optimized for yeast
**Q.** What does the source list for B1?
**A.** dynamic range in output by temperature [1]: higher dynamic range in output at 30 °C compared to 37 °C; activation of GFP expression compared to yeast cells without expression of an LTTR [2]: 8.1 ×; response with BenO at 17 different positions upstream of TATA box [3]: Only position 6 upstream of the TATA box gave a significant response; induction of expression compared to promoter activity without co-expression of BenM ([4]; 491 bp_CYC1p_BenO_T1/T2, no CCM): 5 fold; induction of expression compared to promoter activity without co-expression of BenM ([4]; 491 bp_CYC1p_BenO_T1, no CCM): 20 fold; reduction in expression upon co-expression of BenM ([4]; 491 bp_CYC1p_BenO_T2, no CCM): 30%; effect of BenM on expression of native CYC1p without BenO ([4]; native 491 bp CYC1p): did not increase expression; reporter (GFP) expression in CHO with vs without BenM [5]: activates reporter expression
